The values that follow come from patent US20200108125A1.

The target in the assay is TrkB (mouse) (UniProt P15209). Put plainly: cell-based or functional assay.
Sequence of UniProt P15209 (P15209 32-821): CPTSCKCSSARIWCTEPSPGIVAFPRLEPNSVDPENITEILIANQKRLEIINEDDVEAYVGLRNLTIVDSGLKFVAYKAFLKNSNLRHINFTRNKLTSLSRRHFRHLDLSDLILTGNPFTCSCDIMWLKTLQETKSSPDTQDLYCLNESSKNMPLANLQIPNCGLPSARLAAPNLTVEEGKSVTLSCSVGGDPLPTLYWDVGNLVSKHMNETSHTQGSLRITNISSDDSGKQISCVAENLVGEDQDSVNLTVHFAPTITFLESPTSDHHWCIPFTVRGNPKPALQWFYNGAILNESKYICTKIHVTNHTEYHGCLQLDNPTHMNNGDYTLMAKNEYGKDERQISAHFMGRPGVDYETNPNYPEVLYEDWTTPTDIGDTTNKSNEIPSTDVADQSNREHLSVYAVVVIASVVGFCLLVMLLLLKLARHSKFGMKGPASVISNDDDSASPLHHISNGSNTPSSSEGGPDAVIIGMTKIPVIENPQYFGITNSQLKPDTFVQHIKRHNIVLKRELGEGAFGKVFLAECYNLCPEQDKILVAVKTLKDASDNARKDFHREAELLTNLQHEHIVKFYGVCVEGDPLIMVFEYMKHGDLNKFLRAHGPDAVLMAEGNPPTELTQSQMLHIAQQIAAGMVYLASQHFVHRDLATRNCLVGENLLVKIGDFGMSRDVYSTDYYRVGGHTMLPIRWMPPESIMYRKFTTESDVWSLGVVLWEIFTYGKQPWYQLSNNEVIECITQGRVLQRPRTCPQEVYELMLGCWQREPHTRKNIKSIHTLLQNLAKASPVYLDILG

“Recombinant human BDNF (from UniProt P23560 129-247) (ligand)” registered a Fndc5 gene expression (qPCR) in primary cortical neurons stimulated overnight with BDNF (0.1-100 ng/ml); lowest concentration with a significant reduction of 1 ng/mL.
